Experiments:
[1] = Toxicity of [225Ac]DOTA-HuM195 i.v. in cynamologous monkeys; assay type: in vivo, cynamologous monkey; settings: 9 months out
Procedure: Two male cynamologous monkeys (3-5 kg) were injected i.v. 9 months ago with an initial 0.002-0.005 mCi dose of [225Ac]DOTA-HuM195 per monkey and then 6 weeks later with a 0.017-0.020 mCi dose of [225Ac]DOTA-HuM195. Animals are followed by serial blood sampling and observation of activity and appearance as a function of time.

[2] = test system: Daudi lymphoma cells; test: In vivo efficacy against disseminated Daudi lymphoma; set-up: species or system mouse; settings: irrelevant control, day 1
Procedure: Daudi lymphoma cells are disseminated into 8-12 week old female Scid mice via an intravenous (i.v.) injection of 5E6 Daudi tumor cells in the tail vein; mice experience a 100% tumor take rate in the model (20). In this lymphoma therapy experiment mice are treated 1 day post-tumor dissemination via intravenous injection. Animals are monitored for signs of illness and hind leg paralysis or inability to breathe or ambulate at which time they are sacrificed.
In the first experiment with this disseminated model, mice are treated 1 day post-tumor dissemination with a single dose of labeled specific [225Ac]B4 at three different dose levels, irrelevant control [225Ac]HuM195 at two dose levels, or a mass of unlabeled B4 matching the antibody mass dose administered in the highest dose level radiolabeled groups. Control groups receiving the irrelevant [225Ac]HuM195 have median survival times from xenograft of 43 days and 36 days. Mice receiving 0.003 mg unlabeled B4 per mouse have a median survival time of 57 days from xenograft. The mice receiving a single injection of [225Ac]B4 show dose-related increases in median survival times from xenograft to 165, 137 and 99 days, respectively. The dose response of [225Ac]B4 is significant with P=0.05. […]

225Ac-HuM195-DOTA
evidence of toxicity ([1]; i.v. 0.002-0.005 mCi then 0.017-0.020 mCi 6 weeks later): no evidence of toxicity
hepatic, renal and hematopoietic function ([1]; i.v.): did not change
median survival time from xenograft ([2]; first-named of two dose levels (5550 Bq per FIG. 8A, order assumed)): 43 days
median survival time from xenograft ([2]; second-named of two dose levels (1850 Bq per FIG. 8A, order assumed)): 36 days

From US6683162B2, “Targeted alpha particle therapy using actinium-255 conjugates” (Sloan Kettering Institute of Cancer Research, priority 2000, dated 2004)
